experiment: soluble on expression in E. coli; label from the status in PepcDB or PDB records

| Sequence | soluble on expression in E. coli |
| --- | --- |
| MSLGSGTSTQHHFAFQNAERAFKAAALIQRWYRRYVARLEMRRRCTWSIFQSIEYAGQQDQVKLHDFFSYLMDHFIPSSHNDRDFLTRIFTEDRFAQDSEMKKCSDYESIEVPDSYTGPRLSFPLLPDHATALVEAFRLKQQLHARYVLNLLYETKKHLVQLPNINRVSTCYSEEITVCGDLHGQLDDLIFIFYKNGLPSPERSYVFNGDFVDRGKDSVEILMILFAFMLVYPKEFHLNRGNHEDHMVNLRYGFTKEVMNKYKVHGKEILRTLQDVFCWLPLATLIDEKVLILHGGVSDITDLELLDKIERSKIVSTMRSGTQEEWRQVVDILWSDPMAQEGCKANTIRGGGCYFGPDVTQQLLQKYNMQFLIRSHECKPEGYEFCHNRKVLTIFSASNYYEVGSNRGAYVKLGPALTPHIVQYQANKVTHTLTMRQREGHHHHHH | not soluble |
| MNRHLIHRRDILDTLVADLQAQQPDHIAVTGDLVNIALVNEFAPARQWLESVGPADRVSLVPGNHDAYVRSTAHRFAETFPDYISGDDATPGFPYLRRREAIAIIGVSSAVPTAPLRATGWLGAPQRAALEALLQSLAGERVFKVLLIHHPLQSRSRHKRLTDAADLIALLQRHPVDLVLHGHDHVHATVRIDTPFGAIPVVGVPSASAMNDRHRPSAAYNLFKISEGNLEHHHHHH | soluble |
| STGPVAPLPTPPNFPNDIALFQQAYQNWSKEIMLDATWVCSPKTPQDVVRLANWAHEHDYKIRPRGAMHGWTPLTVEKGANVEKVILADTMTHLNGITVNTGGPVATVTAGAGASIEAIVTELQKHDLGWANLPAPGVLSIGGALAVNAHGAALPAVGQTTLPGHTYGSLSNLVTELTAVVWNGTTYALETYQRNDPRITPLLTNLGRCFLTSVTMQAGPNFRQRCQSYTDIPWRELFAPKGADGRTFEKFVAESGGAEAIWYPFTEKPWMKVWTVSPTKPDSSNEVGSLGSAGSLVGKPPQAREVSGPYNYIFSDNLPEPITDMIGAINAGNPGIAPLFGPAMYEITKLGLAATNANDIWGWSKDVQFYIKATTLRLTEGGGAVVTSRANIATVINDFTEWFHERIEFYRAKGEFPLNGPVEIRCCGLDQAADVKVPSVGPPTISATRPRPDHPDWDVAIWLNVLGVPGTPGMFEFYREMEQWMRSHYNNDDATFRPEWSKGWAFGPDPYTDNDIVTNKMRATYIEGVPTTENWDTARARYNQIDPHRVFTNGFMDKLLP | soluble |
| MEYSHLIPEASHAQTSFGLLYMWANDYEYGVFIDDDTLPHEDADFFGTHMSNLAFEGEIETVSSDEQWVNVLYQNEDEHGLYPRGYPYAAMDETVATEATQVNDVVASQGLWTNVPDLDAVRILMDGDLQGQAQTRTSGADFGDDFVAAEGQYLTVCSMNLAFRREVIPAFYQLPMDDNEWDVGRFDDIWSGVFLKRACDVLGKQIYNGDPLCEHNKAPRSTFSDLTNEVHGLELNEHVWEIVDEAGADADSYAEVFDAIATAMADGDFSDWENGAFLNYCGEFMLDWLECLDELDAAATELEHHHHHH | soluble |
| MAWLNPFWSSPKAYVRPPKRGLAPELWASRIPFTHLENFYEVFRALWENRDNLPYAWRILKDGVCDGCALGTSGLEDWTLHGVHLCNVRLRLLSLNTLPPLDPKVLKDVEALKGRKSRELRRLGRLPYPMLRRKGERGFRRVSWDEAMGLATEYLRRHLPEGAFFYLTSRGVPNETYYVVQKAVRALGCNHVDNAARICHSPSTVVLKEALGVAATTCSYTDLIGTDLVVFLGSNVANNQPVMMKYLYHAKKAGTKVAVVNPYREPGMERYFVPSDLESALFGTRIADRFFQILPGGDIAFLHGAAKWMLEEGWVDPGFIRAHTAGFEAYKALLEAIPFAELEKAAGVSREEMRAFAEMVGRAERAVFVWGMGITQHTHGEDNVRAIVNLALLKGFVGREGCGLMPIRGHSGVQGGAEMGAYATAFPGGLPVNPENARRLAELWGFPVPDRPGLTTPEALDRALEGRLGVLWAIGGDFREVMPDPEAVEEALRRVPLRVHQDIVLSSQMLLEPGECVLLLPATTRYEVPGGVTETSTERRVIFSPEIPGPRPPEARPEWEVFQELVHRLRPELKDRFRFASTAEIREEIARVIPLYEGIQRFKAKGDQFQYGGRRLCEGWRFPTPDGKAHFRPVPLPQKEVPEGAFRVVTRRGKQFNSIVHEDQDPLTGAFRDAVYMNPKDAARLGLKPGDPVVLENAFGRYAGRVYLAEVKEGTLEVHWPEGNVLVDPKARSPLAHIPAYKEILAHLRRGEAEAPSPLRP | soluble |
| MKNLEKCILCGSHNIVPHWKNVRSYNVSKCLDCSFLFLHEIIDDHELENYYSQSYFMASYAKTENNLIDAANNPKITAEAKEYANLIKLHHPEAHNVGEIGCSWGYLLYNLQNFGYSAKGFELSKTTAEMGSKQLGINITSGFFETQYNQFDVLILRHVLEHVPDPQDLLEKIYDSIKKDGLFILEGPNLDSISSRLFGKNVSWVSPPDHISFPNFISLIMACEKLGFTCIHKSSRRGRGISIFHQALLNSVGLMFGGKEKAKVNLGGINEKPNNQQLSSLKSAALKIVDFLDFLSSPMQPFLKQALLEEEMLIIFKKLEHHHHHH | not soluble |
| MVAELAGQQDPGLGAFSCQEARRAWLDRHGNLDEAVEECVRTRRRKVQELQSLGFGPEEGSLQALFQHGGDVSRALTELQRQRLEPFRQRLWDSGPEPTPSWDGPDKQSLVRRLLAVYALPSWGRAELALSLLQETPRNYELGDVVEAVRHSQDRAFLRRLLAQECAVCGWALPHNRMQALTSCECTICPDCFRQHFTIALKEKHITDMVCPACGRPDLTDDTQLLSYFSTLDIQLRESLEPDAYALFHKKLTEGVLMRDPKFLWCAQCSFGFIYEREQLEATCPQCHQTFCVRCKRQWEEQHRGRSCEDFQNWKRMNDPEYQAQGLAMYLQENGIDCPKCKFSYALARGGCMHFHCTQCRHQFCSGCYNAFYAKNKCPEPNCRVKKSLHGHHPRDCLFYLRDWTALRLQKLLQDNNVMFNTEPPAGARAVPGGGCRVIEQKEVPNGLRDEACGKETPAGYAGLCQAHYKEYLVSLINAHSLDPATLYEVEELETATERYLHVRPQPLAGEDPPAYQARLLQKLTEEVPLGQSIPRRRK | soluble |
| QVSDEDVMLMIRQGAKKGVFESVEYEMISRIFRMSDKRASALMTPRNEIEWLDLERPDEELVARIKASGRSRFPVAKGSLDELQGVVRSLDLVNFSLSSKGSIREAIRASMKPPLFVPESVPAFHVLELFKKNRAHMALVIDEHGSVQGAITLTDVLESIVGDVPADDMEGD | not soluble |
| MGSDKIHHHHHHMAEVHVIGQIIGATGFSESSLFCKWGIHTGAAWKLLSGVREGQTQVDTPQIGDMAYWSHPIDLHFATKGLQGWPRLHLQVWSQDSFGRCQLAGYGFCHVPSSPGTHQLDCPTWRPLGSWREQLARAFVGGGPQLLHADTIYSGADRYRLHTAAGGTVHLGIGLLLRHFDRYGVEC | not soluble |
| MERKKAVVLLSGGLDSSTVLAYAISLGYEVHAISFDYGQRHSREMNSSEELAKYYGVDRKIVHVDLRSIGKSALTDDIEVPSRDLESIPEEIPVTYVPARNTIFLSIAAAYAESIGSTDIFIGANAIDYSGYPDCRPEYFNAMEKALTLGTEIGLRKGMHINVPLQYLTKADIIRMGLKLGVPYEKTWSCYKGGEKACGECDSCLLRLKGFMEAGSEDPLEYEKYPTFYKDYIEKRKK | soluble |
| MKFLTFVNRVDWWLNVKKLLMGNEAIAYGALEAGVSFATGYPGTPSTEVIETIARLKPEVFAEWAPNEKVALEEAAGVSYAGLRSLVTMKCVGLNVAADPLMSLAYSGVEGGLVILVADDPGPHTSQTEQDDRYYGKLALLPVLEPYDPQEAHDLIIYAYELSEKYKVPIIFRTTTRVNHTTADVEVGEFKELKREPKFKKDIERYVRASMEGNRKRHKWLNETLKRIEEEFNTLRFNWIEGEGRVGIIVEGAPYNYVKEVVPQIEEDFKILKLSTPHPLPRKLVVEFLRSVDVALVVEEGAPFLEEEIKVVAYEEGLNVPIYGKRTGHLPLEGELTPRLVRNAILKLLGKEREEVKLPKEVEEAKALAPKRPPVMCPGCPHRGTYRALLDALRELGYGKFDIPIHGDIGCYALSLLPPLEAIWTEFVMGASISLANGQSVAMGKKIVATIGDSTFFHNGIQPLIDAVYKDLDVLVIILDNRTTAMTGHQPHPGTGGSETGRKFREIDIESVVRGIGVKYVKTVDPYNLKETKEAIKEAMKVKGPAVIIAKRECVIPVIRRGEIGEIPVVVEDRCTGCKACILLTGCPALVYEPEKKKVRIDPLICTGCGVCNQLCPFDAI | not soluble |
| MHHHHHHSSGRENLYFQGPQDLMVTCTAPVNIAVIKYWGKRDEALILPINSSLSVTLHQDQLKTTTTVAISKDFTEDRIWLNGREEDVGQPRLQACLREIRRLARKRRSTEDGDTLPLSLSYKVHVASVNNFPTAAGLASSAAGYACLAYTLAQVYGVEGDLSEVARRGSGSACRSLYGGFVEWQMGEQADGKDSIARQIAPEWHWPQLRILILVVSADKKQTGSTVGMQTSVETSTLLKFRAESVVPERMKEMTRCIQEQDFQGFAQLTMKDSNQFHATCLDTFPPISYLNDTSRRIIQLVHRFNTHHGQTKVAYTFDAGPNAVIFTLEDTVAEFVAAVRHSFPPAANGDKFLKGLQVAPVLLSDELKAALVVEPSPGGVQYIIATQVGPGPQVLDDTHDHLLGQDGLPQRDL | soluble |
| MGSDKIHHHHHHMKIIPVFLPYAGCKKRCVFCDQIKATGQAKVPSLDDIARIIEEYSRTSNEYELGFYGGTFTGLSEEKMEEYLRFVKRFPVVKSVRVSTRPDEINERKLKILKKYGVNVIEIGVQSFLDEVLERSKRGYTSEEAEGACKLIKKNGFVLSVHLMVGLPGSDRRGEILSALRTVECGADMVRIHPTLVFEGTELHRMMEEGEYTPLNVEEAVDVCSDLVCIFEGWGTKVIRIGYHVPVELRKYVVAGPIDPSLGDRVRRTTMKKVIESLKPSRIVVPKNYLVWFEEAKVEVGDEFRFDDLSYADALFFTGKEVVERWLNG | not soluble |
| MAKRKAEDTQSDKMATAEKVAQNDYTIGLVDPVKDYQKLIETRVQVDEIVDDDVTKENFDRTAAAARDVIWRLLFDEAGTSQSNTEKASQLLEEYRGDACFYDPTPYNEWIVKLRDEVLKKELLDFWRDVLVKKQLGPCWSRDSDLFDSDDTPPLEFYAHAGCTAPFAASLKVRAALEEQASLDQDGPATPTTPGELSADDAAALSGEFEATLTKENPLEEYRTLMKRFVLTKIIVPDSVHQASVKKIAAAAREIIWKLLFDGTPSAEDQNKAAELLQEYKGDAGFYGPDDYNSWIFNLRDEVLTKELLDFWRDKMVKMELGPSCARDSDYYDNEDPLPFEFYEKAGCKAPFEGPVNDD | soluble |
| LLNQGGEKLLDYYFTKTNYMERENARRYNDLRDYVKKNKLSTEDTDRLAEWVRRQEVVWMQMYRDHILLYDSQFPYMKANPEYHVTGQFYEWNGYEMIDFQDGEALVFLTGMYTYQFFNY | not soluble |
| MSLNPRLFSPHIIRSLLDLDAYKINMMQAIHHFYPDVSVRYELIVRSEEDASGLLDAIRQEIAHLGTLRFSDADIHYLTQHAPHLKATFLQSLRYFHFVPQEQVEMGIVKQGGKQQLRISIRGSWRDTILYETLVMAIVSEVRSRQRWAEVPADLPLKVLKTKLDQLKAEIERRGINNFSLTEMGTRRRFSSQVQRDVLACLKQEIPQWVLGTSNYHFAREFDLKPIGTIAHEWFMGHQALVNERDSQQVALERWLTAFDGMLAIAPTDTLTIDAFLNDFNRHLANAYDGVRHDSGCPFRWGDKMIAHYQQLGIDPTTKLFIFSDGLDFDQALELCEYFAGRVKISFGIGTFLTNDLANWRNAAGVEYRPLSIVIKLAECQGRPVAKISDQPEKAMCEDPIFLANLKRRFNIELDVDALIQELRHQKRSPRHYISAAEGHHHHHH | soluble |

— the DeepSol protein solubility set
